Assay results: the supplement of paper PMC11246515
± gives the standard deviation of the averaged measurements.

Test: total protein half-life in vivo (active degradation + dilution); higher = more stable protein
[1] = E. coli NCM3722 delta-clpP, growth: N-lim chemostat, doubling time 6 h
[2] = E. coli NCM3722 delta-hslV, growth: N-lim chemostat, doubling time 6 h
[3] = E. coli NCM3722 delta-lon, growth: N-lim chemostat, doubling time 6 h
[4] = E. coli NCM3722 delta-smpB, growth: N-lim chemostat, doubling time 6 h
[5] = wild type E. coli NCM3722, growth: C-lim chemostat, doubling time 3 h
[6] = wild type E. coli NCM3722, growth: C-lim chemostat, doubling time 6 h
[7] = wild type E. coli NCM3722, growth: C-lim chemostat, doubling time 12 h
[8] = wild type E. coli NCM3722, growth: N-lim chemostat, doubling time 6 h
[9] = wild type E. coli NCM3722, growth: N-lim chemostat, doubling time 12 h
[10] = wild type E. coli NCM3722, growth: P-lim chemostat, doubling time 6 h
[11] = E. coli NCM3722 delta-clpP delta-lon delta-hslV, growth: N-lim chemostat, doubling time 6 h
[12] = wild type E. coli NCM3722, growth: P-lim chemostat, doubling time 12 h

Sequence: MANELTWHDVLAEEKQQPYFLNTLQTVASERQSGVTIYPPQKDVFNAFRFTELGDVKVVILGQDPYHGPGQAHGLAFSVRPGIAIPPSLLNMYKELENTIPGFTRPNHGYLESWARQGVLLLNTVLTVRAGQAHSHASLGWETFTDKVISLINQHREGVVFLLWGSHAQKKGAIIDKQRHHVLKAPHPSPLSAHRGFFGCNHFVLANQWLEQRGETPIDWMPVLPAESE
- total protein half-life in vivo [1]: 5.184 ± 0.029 h
- total protein half-life in vivo [2]: 5.26 ± 0.17 h
- total protein half-life in vivo [3]: 5.24 ± 0.29 h
- total protein half-life in vivo [4]: 5.6 ± 0.28 h
- total protein half-life in vivo [5]: 3.1 ± 0.099 h
- total protein half-life in vivo [6]: 5.17 ± 0.19 h
- total protein half-life in vivo [7]: 11.2 ± 2.4 h
- total protein half-life in vivo [8]: 4.89 ± 0.42 h
- total protein half-life in vivo [9]: 10.6 ± 0.65 h
- total protein half-life in vivo [10]: 5.97 ± 0.092 h

Sequence: MSTIIMDLCSYTRLGLTGYLLSRGVKKREINDIETVDDLAIACDSQRPSVVFINEDCFIHDASNSQRIKLIINQHPNTLFIVFMAIANVHFDEYLLVRKNLLISSKSIKPESLDDILGDILKKETTITSFLNMPTLSLSRTESSMLRMWMAGQGTIQISDQMNIKAKTVSSHKGNIKRKIKTHNKQVIYHVVRLTDNVTNGIFVNMR [P0DMC9]
- total protein half-life in vivo [11]: 5.4 ± 0.66 h
- total protein half-life in vivo [3]: 1 ± 0.029 h
- total protein half-life in vivo [4]: 1.51 ± 0.036 h

Sequence: MLSIKDLHVSVEDKAILRGLSLDVHPGEVHAIMGPNGSGKSTLSATLAGREDYEVTGGTVEFKGKDLLALSPEDRAGEGIFMAFQYPVEIPGVSNQFFLQTALNAVRSYRGQETLDRFDFQDLMEEKIALLKMPEDLLTRSVNVGFSGGEKKRNDILQMAVLEPELCILDESDSGLDIDALKVVADGVNSLRDGKRSFIIVTHYQRILDYIKPDYVHVLYQGRIVKSGDFTLVKQLEEQGYGWLTEQQ
- total protein half-life in vivo [11]: 4.81 ± 0.069 h
- total protein half-life in vivo [1]: 5.52 ± 1.8 h
- total protein half-life in vivo [2]: 4.19 ± 0.79 h
- total protein half-life in vivo [3]: 4.25 ± 0.1 h
- total protein half-life in vivo [4]: 3.63 ± 0.052 h
- total protein half-life in vivo [5]: 2.88 ± 0.13 h
- total protein half-life in vivo [6]: 5.37 ± 0.23 h
- total protein half-life in vivo [7]: 10.1 ± 0.62 h
- total protein half-life in vivo [8]: 3.75 ± 0.3 h
- total protein half-life in vivo [9]: 5.68 ± 0.23 h
- total protein half-life in vivo [10]: 5.47 ± 0.51 h
- total protein half-life in vivo [12]: 9.75 ± 0.2 h

Sequence: MHELSLCQSAVEIIQRQAEQHDVKRVTAVWLEIGALSCVEESAVRFSFEIVCHGTVAQGCDLHIVYKPAQAWCWDCSQVVEIHQHDAQCPLCHGERLRVDTGDSLIVKSIEVE [P0A703]
- total protein half-life in vivo [11]: 4.94 ± 1.4 h
- total protein half-life in vivo [1]: 3.51 h
- total protein half-life in vivo [3]: 3.49 ± 0.32 h
- total protein half-life in vivo [4]: 3.57 h
- total protein half-life in vivo [7]: 9.8 h
- total protein half-life in vivo [8]: 3.97 ± 0.6 h
- total protein half-life in vivo [9]: 5.27 ± 1.4 h
- total protein half-life in vivo [10]: 3.77 h
- total protein half-life in vivo [12]: 8.0989 ± 0.006 h

Sequence: MNAKIIASLAFTSMFSLSTLLSPAHAEEQEKALNFGIISTESQQNLKPQWTPFLQDMEKKLGVKVNAFFAPDYAGIIQGMRFNKVDIAWYGNLSAMEAVDRANGQVFAQTVAADGSPGYWSVLIVNKDSPINNLNDLLAKRKDLTFGNGDPNSTSGFLVPGYYVFAKNNISASDFKRTVNAGHETNALAVANKQVDVATNNTENLDKLKTSAPEKLKELKVIWKSPLIPGDPIVWRKNLSETTKDKIYDFFMNYGKTPEEKAVLERLGWAPFRASSDLQLVPIRQLALFKEMQGVKSNKGLNEQDKLAKTTEIQAQLDDLDRLNNALSAMSSVSKAVQ
- total protein half-life in vivo [10]: 1.02 ± 0.21 h
- total protein half-life in vivo [12]: 2.63 ± 1.1 h

Sequence: MKLNIFTKSMIGMGLVCSALPALAMEAWNNQQGGNKYQVIFDGKIYENAWWVSSTNCPGKAKANDATNPWRLKRTATAAEISQFGNTLSCEKSGSSSSSNSNTPASNTPANGGSATPAQGTVPSNSSVVAWNKQQGGQTWYVVFNGAVYKNAWWVASSNCPGDAKSNDASNPWRYVRAATATEISETSNPQSCTSAPQPSPDVKPAPDVKPAPDVQPAPADKSNDNYAVVAWKGQEGSSTWYVIYNGGIYKNAWWVGAANCPGDAKENDASNPWRYVRAATATEISQYGNPGSCSVKPDNNGGAVTPVDPTPETPVTPTPDNSEPSTPADSVNDYSLQAWSGQEGSEIYHVIFNGNVYKNAWWVGSKDCPRGTSAENSNNPWRLERTATAAELSQYGNPTTCEIDNGGVIVADGFQASKAYSADSIVDYNDAHYKTSVDQDAWGFVPGGDNPWKKYEPAKAWSASTVYVKGDRVVVDGQAYEALFWTQSDNPALVANQNATGSNSRPWKPLGKAQSYSNEELNNAPQFNPETLYASDTLIRFNGVNYISQSKVQKVSPSDSNPWRVFVDWTGTKERVGTPKKAWPKHVYAPYVDFTLNTIPDLAALAKNHNVNHFTLAFVVSKDANTCLPTWGTAYGMQNYAQYSKIKALREAGGDVMLSIGGANNAPLAASCKNVDDLMQHYYDIVDNLNLKVLDFDIEGTWVADQASIERRNLAVKKVQDKWKSEGKDIAIWYTLPILPTGLTPEGMNVLSDAKAKGVELAGVNVMTMDYGNAICQSANTEGQNIHGKCATSAIANLHSQLKGLHPNKSDAEIDAMMGTTPMVGVNDVQGEVFYLSDARLVMQDAQKRNLGMVGIWSIARDLPGGTNLSPEFHGLTKEQAPKYAFSEIFAPFTKQ
- total protein half-life in vivo [11]: 4.89 ± 0.41 h
- total protein half-life in vivo [1]: 7.07 ± 0.34 h
- total protein half-life in vivo [2]: 5.22 ± 1.2 h
- total protein half-life in vivo [4]: 5.97 ± 0.68 h
- total protein half-life in vivo [6]: 5.72 h
- total protein half-life in vivo [7]: 10.9 ± 1.9 h
- total protein half-life in vivo [8]: 5.87 ± 0.36 h
- total protein half-life in vivo [9]: 12.9 ± 0.98 h
- total protein half-life in vivo [10]: 6.31 ± 0.59 h

Sequence: MGQSKKLNKQPSSLSPLVQLAGIRKCFDGKEVIPQLDLTINNGEFLTLLGPSGCGKTTVLRLIAGLETVDSGRIMLDNEDITHVPAENRYVNTVFQSYALFPHMTVFENVAFGLRMQKTPAAEITPRVMEALRMVQLETFAQRKPHQLSGGQQQRVAIARAVVNKPRLLLLDESLSALDYKLRKQMQNELKALQRKLGITFVFVTHDQEEALTMSDRIVVMRDGRIEQDGTPREIYEEPKNLFVAGFIGEINMFNATVIERLDEQRVRANVEGRECNIYVNFAVEPGQKLHVLLRPEDLRVEEINDDNHAEGLIGYVRERNYKGMTLESVVELENGKMVMVSEFFNEDDPDFDHSLDQKMAINWVESWEVVLADEEHK
- total protein half-life in vivo [11]: 7.21 ± 0.97 h
- total protein half-life in vivo [2]: 5.83 ± 0.062 h
- total protein half-life in vivo [3]: 5.7 ± 0.78 h
- total protein half-life in vivo [4]: 5.77 ± 0.36 h
- total protein half-life in vivo [5]: 3.46 ± 0.65 h
- total protein half-life in vivo [6]: 6.55 ± 0.38 h
- total protein half-life in vivo [7]: 11.9 ± 0.32 h
- total protein half-life in vivo [9]: 12.2 ± 0.83 h
- total protein half-life in vivo [10]: 6.41 ± 0.34 h
- total protein half-life in vivo [12]: 13.4 ± 0.35 h

Sequence: MDDIVNSVPSWMFTAIIAVCILFIIGIIFARLYRRASAEQAFVRTGLGGQKVVMSGGAIVMPIFHEIIPINMNTLKLEVSRSTIDSLITKDRMRVDVVVAFFVRVKPSVEGIATAAQTLGQRTLSPEDLRMLVEDKFVDALRATAAQMTMHELQDTRENFVQGVQNTVAEDLSKNGLELESVSLTNFNQTSKEHFNPNNAFDAEGLTKLTQETERRRRERNEVEQDVEVAVREKNRDALSRKLEIEQQEAFMTLEQEQQVKTRTAEQNARIAAFEAERRREAEQTRILAERQIQETEIDREQAVRSRKVEAEREVRIKEIEQQQVTEIANQTKSIAIAAKSEQQSQAEARANLALAEAVSAQQNVETTRQTAEADRAKQVALIAAAQDAETKAVELTVRAKAEKEAAEMQAAAIVELAEATRKKGLAEAEAQRALNDAINVLSDEQTSLKFKLALLQALPAVIEKSVEPMKSIDGIKIIQVDGLNRGGAAGDANTGNVGGGNLAEQALSAALSYRTQAPLIDSLLNEIGVSGGSLAALTSPLTSTTPVEEKAE
- total protein half-life in vivo [1]: 4.22 h
- total protein half-life in vivo [4]: 3.89 h
- total protein half-life in vivo [7]: 9.53 h
- total protein half-life in vivo [8]: 3.81 h
- total protein half-life in vivo [10]: 6.67 h
- total protein half-life in vivo [12]: 12.3 h

Sequence: MKTTAKLSFMMFVEWFIWGAWFVPLWLWLSKSGFSAGEIGWSYACTAIAAILSPILVGSITDRFFSAQKVLAVLMFAGALLMYFAAQQTTFAGFFPLLLAYSLTYMPTIALTNSIAFANVPDVERDFPRIRVMGTIGWIASGLACGFLPQILGYADISPTNIPLLITAGSSALLGVFAFFLPDTPPKSTGKMDIKVMLGLDALILLRDKNFLVFFFCSFLFAMPLAFYYIFANGYLTEVGMKNATGWMTLGQFSEIFFMLALPFFTKRFGIKKVLLLGLVTAAIRYGFFIYGSADEYFTYALLFLGILLHGVSYDFYYVTAYIYVDKKAPVHMRTAAQGLITLCCQGFGSLLGYRLGGVMMEKMFAYQEPVNGLTFNWSGMWTFGAVMIAIIAVLFMIFFRESDNEITAIKVDDRDIALTQGEVK
- total protein half-life in vivo [6]: 4.97 ± 0.24 h
- total protein half-life in vivo [7]: 9.17 h

Sequence: MYAAKGTQAYAQIGVESAVMSASQQQLVTMLFDGVLSALVRASLFMQDNNQQGKGVSLSKAINIIENGLRVSLDEESKDELTQNLIALYSYMVRRLLQANLRNDVSAVEEVEALMRNIADAWKESLLSPSLIQDPV
- total protein half-life in vivo [5]: 0.207 ± 0.029 h
